Test [1] deals with BG505 SOSIP.664 gp140 trimer (HIV). In words: SPR.
For test [2], the target named is F84T Malay BanLec (Musa acuminata ssp. malaccensis). In words: crystal structure; WT and F84T Malay BanLec each at 5 mg/mL in 10 mM HEPES pH 7.5, 150 mM NaCl; crystals grown at 20 °C from ammonium sulfate; dimers in the asymmetric unit.
Test [3] addresses WT Malaysian banana lectin (Malay BanLec) (Musa acuminata ssp. malaccensis). Described as above.

In test [1], F84T Malay BanLec (natural protein) displayed a Kd of 0.368 nM, a koff of 0.000266 s⁻¹ and an on-rate (kon) of 720000 M⁻¹ s⁻¹. Moreover, the stoichiometry N in test [2] turned out to be 2.

In the case of “WT Malaysian banana lectin (Malay BanLec) (natural protein)”, in test [1], the Kd stood at 0.122 nM, the koff was found to be 0.00014 s⁻¹ and the kon is 1.33e+06 M⁻¹ s⁻¹. This substance also displayed a stoichiometry N in test [3] of 2.

In test [1], “griffithsin (GRFT) (from UniProt P84801 1-121) (natural protein)” yielded a Kd of 0.137 nM, a koff of 0.00074 s⁻¹ and a kon of 5.56e+06 M⁻¹ s⁻¹.

As usually defined, the Kd is the concentration at which binding is half-saturated. The term koff denotes a measure of how fast the partners let go of each other. A low value points to a long-lived complex. Broadly, the kon is a measure of how fast the partners come together. A higher kon goes with faster complex formation. As a reminder, the stoichiometry N is a count of units in the complex or per binding partner.

The values are drawn from paper PMC7804308.
